Measured values reported in article PMC4906797.

Tested on: C/C=C/C=C/C(=O)CC(=O)SCCNC(C)=O
Test: purified protein

LovB (lovastatin nonaketide synthase) (Aspergillus terreus)
kcat: 3.27 s⁻¹
